Measurements from patent publication US20220017622A1 (Pfizer, published 2022).

Molecular target: T1, human B7-H4 on human tumor cell lines (human, UniProt Q7Z7D3 25-282)
T1 sequence (looked up): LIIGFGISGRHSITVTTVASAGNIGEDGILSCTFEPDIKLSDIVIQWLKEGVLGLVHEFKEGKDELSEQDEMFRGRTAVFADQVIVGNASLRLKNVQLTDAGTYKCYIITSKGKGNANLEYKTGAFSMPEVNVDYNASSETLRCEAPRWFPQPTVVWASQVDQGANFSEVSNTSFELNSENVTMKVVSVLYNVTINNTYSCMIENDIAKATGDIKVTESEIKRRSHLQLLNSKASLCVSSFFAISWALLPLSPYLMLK
Assay: cell-based or functional assay

B1: B7-H4xCD3 bispecific antibody 1167 (bispecific antibody, IgG2)
heavy 1: EVQLLESGGGLVQPGGSLRLSCAASGFTFSSYAMSWVRQAPGKGLEWVSAISGGGGSTYYADSVKGRFTISRDNSKNTLYLQMNSLRAEDTAVYYCARDIQWYGESTLFDYWGQGTLVTVSSASTKGPSVFPLAPCSRSTSESTAALGCLVKDYFPEPVTVSWNSGALTSGVHTFPAVLQSSGLYSLSSVVTVPSSNFGTQTYTCNVDHKPSNTKVDKTVERKCEVECPECPAPPVAGPSVFLFPPKPKDTLMISRTPEVTCVVVAVSHEDPEVQFNWYVDGVEVHNAKTKPREEQFNSTFRVVSVLTVVHQDWLNGKEYKCKVSNKGLPSSIEKTISKTKGQPREPQVYTLPPSREEMTKNQVSLTCEVKGFYPSDIAVEWESNGQPENNYKTTPPMLDSDGSFFLYSKLTVDKSRWQQGNVFSCSVMHEALHNHYTQKSLSLSPGK
light 1: DIQMTQSPSSLSASVGDRVTITCRASQSTRSHLAWYQQKPGKAPKLLIYKASSLEGGVPSRFSGSGSGTDFTLTISSLQPEDFATYYCQQYGSYSRTFGQGTKVEIKRTVAAPSVFIFPPSDEQLKSGTASVVCLLNNFYPREAKVQWKVDNALQSGNSQESVTEQDSKDSTYSLSSTLTLSKADYEKHKVYACEVTHQGLSSPVTKSFNRGEC
heavy 2: EVQLVESGGGLVQPGGSLRLSCAASGFTFSDYYMTWVRQAPGKGLEWVAFIRNQARGYTSDHNPSVKGRFTISRDNAKNSLYLQMNSLRAEDTAVYYCARDRPSYYVLDYWGQGTTVTVSSASTKGPSVFPLAPCSRSTSESTAALGCLVKDYFPEPVTVSWNSGALTSGVHTFPAVLQSSGLYSLSSVVTVPSSNFGTQTYTCNVDHKPSNTKVDKTVERKCRVRCPRCPAPPVAGPSVFLFPPKPKDTLMISRTPEVTCVVVAVSHEDPEVQFNWYVDGVEVHNAKTKPREEQFNSTFRVVSVLTVVHQDWLNGKEYKCKVSNKGLPSSIEKTISKTKGQPREPQVYTLPPSREEMTKNQVSLTCLVKGFYPSDIAVEWESNGQPENNYKTTPPMLDSDGSFFLYSRLTVDKSRWQQGNVFSCSVMHEALHNHYTQKSLSLSPGK
light 2: DIQMTQSPSSLSASVGDRVTITCTSSQSLFNVRSQKNYLAWYQQKPGKAPKLLIYWASTRESGVPSRFSGSGSGTDFTLTISSLQPEDFATYYCKQSYDLFTFGGGTKVEIKRTVAAPSVFIFPPSDEQLKSGTASVVCLLNNFYPREAKVQWKVDNALQSGNSQESVTEQDSKDSTYSLSSTLTLSKADYEKHKVYACEVTHQGLSSPVTKSFNRGEC
- EC50 (nM) of Antibody 1167 in inducing redirected T cell killing in vitro, HCC1954 cells (B7-H4 density 20039 per cell): 0.8 nM
- EC50 (nM) of Antibody 1167 in inducing redirected T cell killing in vitro, MDA-MB-453 cells (B7-H4 density 1198 per cell): 8.44 nM
- EC50 (nM) of Antibody 1167 in inducing redirected T cell killing in vitro, MDA-MB-468 cells (B7-H4 density 83936 per cell): 0.4 nM
- EC50 (nM) of Antibody 1167 in inducing redirected T cell killing in vitro, MX1 cells (B7-H4 density 108684 per cell): 0.062 nM
- EC50 (nM) of Antibody 1167 in inducing redirected T cell killing in vitro, T47D cells (B7-H4 density 6133 per cell): 0.54 nM
